We go through 167 variants from the RNAGym collection of RNA variant scans (doi:10.7554/elife.90254).

Sequences and labels used below:
B1: OR4K15 (parent)
chain: GUUAACGGUCAUAGGCCAUGGAAACUAGGAGCACCAUUUCGCUGCCAGUGAAGAAAUGAACAAAGAAAAUCUGGGCCAGGCAGGCAUCAAAAGAAAUAGUCUUGCGCUCAACCAGAAAGUCUGUAAUCAUUUUAAGGGUA

In this data set the parent is B1. Nature of the data set: self-cleavage, relative activity (ratio to wild type); higher = more cleavage; in vitro, sequencing; the parent is a self-cleaving ribozyme.
As for A24G C34U, the self-cleavage was found to be 1.69.

As for U38G A114G, the self-cleavage amounted to 0.79.

As to U87C A111G, the self-cleavage was found to be 0.03.

A54G A110G: the self-cleavage amounted to 0.21.

For A56C, the self-cleavage amounted to 1.33.

As for A86C A95G, the self-cleavage turned out to be 1.34.

As to U39C A117U, the self-cleavage was found to be 1.08.

For A47C U120A, the self-cleavage is 2.24.

As for U26C U39A, the self-cleavage stood at 1.13.

For the variant C101G U120C, the self-cleavage turned out to be 0.03.

As to A36G G123A, the self-cleavage worked out at 1.46.

In the case of U70C A114C, the self-cleavage was found to be 0.

C6U U43C: the self-cleavage is 1.58.

As for A23G A67G, the self-cleavage was 1.11.

Consider A23G U124C, for which the self-cleavage came to 0.69.

In the case of C16U G80A, the self-cleavage came to 0.1.

In the case of U3A A67U, the self-cleavage amounted to 0.46.

For U2A U57C, the self-cleavage came to 0.92.

With U43A A51U, the self-cleavage was 1.28.

With A23G U37C, the self-cleavage was 1.03.

A4U A140G: the self-cleavage was 1.16.

A64U A78G: the self-cleavage was determined as 0.47.

As for A89U A135G, the self-cleavage amounted to 1.53.

Turning to C113G U131C, the self-cleavage amounted to 0.

As to A18C A62G, the self-cleavage is 1.36.

For the variant U12C U49G, the self-cleavage came out at 0.74.

For the variant U37C A52U, the self-cleavage was found to be 0.57.

For the variant U9C A47G, the self-cleavage was 1.08.

In the case of A95G A116U, the self-cleavage came out at 0.45.

For the variant U120A U127C, the self-cleavage amounted to 1.67.

For the variant U19C U70A, the self-cleavage stood at 1.06.

Regarding U19C U70C, the self-cleavage was 0.7.

In the case of U37A A64G, the self-cleavage amounted to 1.44.

On to A18G G83A, for which the self-cleavage was found to be 1.54.

As for A5C U102A, the self-cleavage worked out at 1.35.

As for A36C, the self-cleavage was found to be 1.52.

In the case of U49A A114G, the self-cleavage turned out to be 0.25.

Regarding C46U, the self-cleavage is 1.54.

For A54G A98U, the self-cleavage was found to be 2.61.

As for U3C, the self-cleavage amounted to 1.1.

For U3A, the self-cleavage is 1.

Consider A55G A69U, for which the self-cleavage amounted to 0.23.

As for U19C U108C, the self-cleavage is 0.02.

With A63U U103A, the self-cleavage is 0.49.

As for A63G U87C, the self-cleavage came to 1.59.

On to A24U A116U, for which the self-cleavage was 0.51.

Take A52G A89G: the self-cleavage turned out to be 1.84.

On to A82U U97A, for which the self-cleavage was determined as 0.34.

Consider A27G A33U, for which the self-cleavage was 1.16.

On to A69U A126C, for which the self-cleavage came to 1.66.

Turning to A56G A114C, the self-cleavage worked out at 0.02.

With U19A A98G, the self-cleavage was determined as 0.5.

On to G8C U122C, for which the self-cleavage was found to be 1.12.

As for A36U U120A, the self-cleavage is 2.08.

In the case of A23G U122C, the self-cleavage amounted to 0.84.

Regarding C42G A47U, the self-cleavage was found to be 1.02.

As to A94G U108G, the self-cleavage came to 0.07.

On to C10U A47G, for which the self-cleavage came out at 0.

As for C45U A114G, the self-cleavage was found to be 0.75.

For the variant A5G U131C, the self-cleavage is 0.56.

With A78G U120A, the self-cleavage is 0.22.

In the case of U2A U12C, the self-cleavage came out at 1.41.

As to A30C A51U, the self-cleavage is 2.04.

Consider A117G U120C, for which the self-cleavage is 0.23.

Regarding A69U U87G, the self-cleavage was 0.74.

A69G A92U: the self-cleavage amounted to 1.3.

U3A A96G: the self-cleavage came out at 1.18.

In the case of A59G U72C, the self-cleavage worked out at 0.23.

As for A82G U139C, the self-cleavage was 0.39.

Turning to A82G A92G, the self-cleavage stood at 0.67.

Consider A30G A69G, for which the self-cleavage amounted to 1.27.

G14C A55G: the self-cleavage is 1.34.

Take A11G A66U: the self-cleavage is 1.45.

For G48A A92U, the self-cleavage came out at 1.62.

U43C A90U: the self-cleavage worked out at 1.83.

Regarding G7U U108A, the self-cleavage amounted to 0.06.

A67U A91G: the self-cleavage was determined as 1.91.

Consider A27C A78G, for which the self-cleavage was determined as 0.21.

In the case of A62U A118U, the self-cleavage amounted to 0.82.

Take A96U: the self-cleavage came out at 1.88.

For the variant A55G A59U, the self-cleavage came out at 1.13.

On to A54G A62G, for which the self-cleavage stood at 0.92.

With A18G G73U, the self-cleavage was found to be 0.23.

Take U97A U122C: the self-cleavage is 1.83.

As for A55G U132A, the self-cleavage turned out to be 1.61.

For A47G A52U, the self-cleavage turned out to be 1.73.

For the variant A55C G106A, the self-cleavage turned out to be 0.02.

For the variant A5G C107U, the self-cleavage was found to be 0.02.

With A47U U102A, the self-cleavage was determined as 0.45.

Regarding A52G U132C, the self-cleavage was determined as 1.84.

As to A47G U97A, the self-cleavage worked out at 1.21.

As for U37C C61A, the self-cleavage is 0.78.

In the case of A118G U120A, the self-cleavage came out at 2.61.

For the variant U124C A135C, the self-cleavage was 0.06.

For A47U A114U, the self-cleavage was 0.06.

For the variant A86G U122C, the self-cleavage was 0.88.

Consider C61U A64U, for which the self-cleavage is 0.27.

In the case of A5G A90G, the self-cleavage was found to be 1.11.

As to A55C A126G, the self-cleavage is 1.09.

A5G A13G: the self-cleavage worked out at 0.89.

In the case of U2A U70C, the self-cleavage came to 0.67.

For A33U U103C, the self-cleavage worked out at 0.84.

Consider A110U A118G, for which the self-cleavage is 0.72.

In the case of G20A A69G, the self-cleavage turned out to be 1.

With U12A A36G, the self-cleavage was found to be 1.05.

In the case of A13U A96G, the self-cleavage was 1.14.

Regarding C46U A116G, the self-cleavage worked out at 1.37.

As to A60U U122A, the self-cleavage came out at 2.08.

In the case of A98U G104A, the self-cleavage amounted to 0.12.

On to G21A A135C, for which the self-cleavage stood at 1.25.

With U3G U37C, the self-cleavage was 1.52.

In the case of A91G A92C, the self-cleavage stood at 0.76.

Consider U26C U108C, for which the self-cleavage was found to be 0.01.

Consider A11G A94G, for which the self-cleavage turned out to be 0.95.

For the variant A18U A98C, the self-cleavage was 1.13.

In the case of A67U A89G, the self-cleavage was 1.74.

On to G41C A51C, for which the self-cleavage was determined as 0.71.

Turning to A18G A116G, the self-cleavage is 1.17.

As for U19C A62C, the self-cleavage came to 1.65.

Take G1U A63G: the self-cleavage worked out at 0.92.

As for A78G C81U, the self-cleavage was 0.14.

U49C U132A: the self-cleavage came out at 1.65.

On to U49C U108A, for which the self-cleavage was 0.01.

On to A4U G106A, for which the self-cleavage was 0.14.

G75A C77U: the self-cleavage turned out to be 0.11.

On to A94G C107G, for which the self-cleavage came out at 0.01.

In the case of U43C A118U, the self-cleavage was 0.87.

On to A96G A111C, for which the self-cleavage amounted to 0.01.

As for A125U U131C, the self-cleavage amounted to 2.47.

For A23U A47G, the self-cleavage was determined as 0.67.

On to A95G U124A, for which the self-cleavage was 0.8.

For A51G G106A, the self-cleavage worked out at 0.

On to G65A A68G, for which the self-cleavage amounted to 1.57.

As to A23U A78G, the self-cleavage stood at 0.31.

Consider U49C A140G, for which the self-cleavage was found to be 2.12.

Turning to U122C U131A, the self-cleavage worked out at 1.25.

Regarding A63G A78G, the self-cleavage came to 0.31.

Consider U57C U124G, for which the self-cleavage came to 0.94.

With A27U U108C, the self-cleavage amounted to 0.03.

Take A92G A126G: the self-cleavage is 1.18.

G65A A117G: the self-cleavage worked out at 0.36.

For A30G A111G, the self-cleavage was determined as 0.05.

On to U2C A78G, for which the self-cleavage is 0.21.

For U2C A52G, the self-cleavage was 1.19.

With A51C U131C, the self-cleavage came to 1.28.

A67G G136A: the self-cleavage was determined as 1.63.

A78G U130A: the self-cleavage was 0.17.

For A78G U130C, the self-cleavage was determined as 0.3.

Regarding A114U U127C, the self-cleavage was 0.03.

For the variant U2C A62C, the self-cleavage is 1.39.

Turning to A55G A134G, the self-cleavage was 1.23.

For the variant U26C C46U, the self-cleavage is 0.81.

Take U2A U9C: the self-cleavage turned out to be 1.52.

Consider G58A A95G, for which the self-cleavage came to 1.51.

Regarding G53U A111G, the self-cleavage amounted to 0.04.

Consider C16G A86G, for which the self-cleavage was 0.51.

For the variant G15C A86U, the self-cleavage turned out to be 1.92.

On to C42U A129G, for which the self-cleavage amounted to 1.47.

Consider U130A U139C, for which the self-cleavage worked out at 0.78.

Consider A82U A126C, for which the self-cleavage is 0.05.

U131C A135C: the self-cleavage came out at 1.02.

On to A24G A125C, for which the self-cleavage worked out at 0.4.

A11U A30G: the self-cleavage amounted to 1.23.

Consider U49A U57G, for which the self-cleavage stood at 0.46.

Take A22G A54G: the self-cleavage came to 0.84.

Consider A66U A135U, for which the self-cleavage is 0.74.

Consider A89G A116G, for which the self-cleavage was 0.7.
